Measured values from patent EP0873354B1.

Columns and labels:
[1] = molecular target: rat liver AMPK α1 isoform (affinity purified α1 AMPK, native enzyme) (rat) (UniProt P54645); assay: peptide substrate affinity chromatography of rat liver preparations, single pass
[2] = molecular target: rat liver AMPK α1 isoform (affinity purified α1 AMPK, native enzyme) (rat) (UniProt P54645); assay: peptide substrate affinity chromatography of rat liver preparations, with recycling

Sequence of UniProt P54645 (P54645 whole entry, form in doubt, chain 1 of 2, canonical isoform): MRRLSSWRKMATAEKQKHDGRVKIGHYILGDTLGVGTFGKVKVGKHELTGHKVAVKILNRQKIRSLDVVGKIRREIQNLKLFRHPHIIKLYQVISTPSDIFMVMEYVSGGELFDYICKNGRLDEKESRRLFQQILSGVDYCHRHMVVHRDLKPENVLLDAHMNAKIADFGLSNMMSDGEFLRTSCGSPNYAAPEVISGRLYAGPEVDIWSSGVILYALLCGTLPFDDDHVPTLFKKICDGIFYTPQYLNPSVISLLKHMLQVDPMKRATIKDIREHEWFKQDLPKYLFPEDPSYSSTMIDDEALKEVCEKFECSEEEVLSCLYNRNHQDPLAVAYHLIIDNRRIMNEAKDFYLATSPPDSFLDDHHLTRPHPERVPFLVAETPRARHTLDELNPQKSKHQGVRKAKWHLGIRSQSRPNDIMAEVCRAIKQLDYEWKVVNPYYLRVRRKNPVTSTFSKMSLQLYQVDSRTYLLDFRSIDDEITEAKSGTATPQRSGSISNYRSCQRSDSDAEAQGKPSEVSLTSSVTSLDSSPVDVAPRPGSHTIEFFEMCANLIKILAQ
Sequence of UniProt P54645 (P80385 whole entry, form in doubt, chain 2 of 2, further chain, canonical isoform): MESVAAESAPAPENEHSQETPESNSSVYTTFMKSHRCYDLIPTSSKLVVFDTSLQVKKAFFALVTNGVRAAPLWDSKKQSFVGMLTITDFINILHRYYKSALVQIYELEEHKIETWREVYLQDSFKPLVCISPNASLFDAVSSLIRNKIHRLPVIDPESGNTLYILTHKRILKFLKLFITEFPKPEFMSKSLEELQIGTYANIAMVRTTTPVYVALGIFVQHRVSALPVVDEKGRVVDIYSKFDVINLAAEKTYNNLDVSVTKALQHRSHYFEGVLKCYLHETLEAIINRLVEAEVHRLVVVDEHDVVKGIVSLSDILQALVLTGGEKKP

## ADR1 (222-234)P229 peptide
[1]
  proportion of SAMS peptide phosphotransferase activity bound to the peptide affinity column with a single pass: 90 to 92%
[2]
  proportion of SAMS peptide phosphotransferase activity bound to the column with recycling: 94%
